# Experimental data from the supplement of paper PMC7877785.
# ± gives the uncertainty stated by the source.
# Assay: self-splicing fitness, log relative to wild type (ln ratio); higher = more splicing; Tetrahymena group I intron in knt gene, E. coli kanamycin selection, DiMSum; sequences stand for … in CUCUCU…GGAGGGAAAAGUUAUCAGGCAUGCACCUGGUAGCUAGUCUUUAAACCAAUAGAUUGCAUCGGUUUAAAAGGCAAGACCGUCAAAUUGCGGGAAAGGGGUCAACAGCCGUUCAGUACCAAGUCUCAGGGGAAACUUUGAGAUGGCCUUGCAAAGGGUAUGGUAAUAAGCUGACGGACAUGGUCCUAACCACGCAGCCAAGUCCUAAGUCAACAGAUCUUCUGUUGAUAUGGAUGCAGUUCACAGACUAAAUGUCGGUCGGGGAAGAUGUAUUCUUCUCAUAAGAUAUAGUCGGACCUCUCCUUAAUGGGAGCUAGCGGAUGAAGUGAUGCAACACUGGAGCCGCUGGGAACUAAUUUGUAUGCGAAAGUAUAUUGAUUAGUUUUGGAGUACUCGUGGUCG
# Summary of the method: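 Colonies from six replicate transformations of E. coli BL21(DE3) were pooled and amplicon-sequenced on an Illumina HiSeq 2500. The library placed an intron with all eight P1ex-region nucleotides randomised inside the knt kanamycin-resistance gene on pET-22b(+), and cells grew overnight at 37°C or 30°C on LB agar with or without 25 μg/mL kanamycin (plus 100 μg/mL carbenicillin, 50 μM IPTG, 0.2% rhamnose). Fitness is the DiMSum error-weighted combination of wild-type-normalised replicate fold changes, kanamycin versus none.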
Sequence,self-splicing fitness (ln) (30 °C),self-splicing fitness (ln) (37 °C)
AGCCAGCAAUAUUACGCCAG,-3.96 ± 0.27,-2.23 ± 0.16
UAUCAGCAAUAUUACGCACU,-0.0365 ± 0.087,0.104 ± 0.094
AACGAGCAAUAUUACGGAGG,-2.79 ± 0.19,-2.38 ± 0.27
GCUCAGCAAUAUUACGUCAU,-2.27 ± 0.06,-1.26 ± 0.074
AUUUAGCAAUAUUACGGGAC,-2.36 ± 0.32,-1.32 ± 0.26
UCCUAGCAAUAUUACGUUGU,–,-1.99 ± 0.29
CGACAGCAAUAUUACGCGUC,-1.94 ± 0.14,-2.76 ± 0.27
AGAAAGCAAUAUUACGACGC,-0.72 ± 0.11,-0.219 ± 0.14
UCCCAGCAAUAUUACGUAUA,-2.5 ± 0.1,-1.33 ± 0.1
UCGAAGCAAUAUUACGCAAC,-2.37 ± 0.42,–
CUAAAGCAAUAUUACGUGCC,-4.57 ± 0.29,-2.25 ± 0.18
CUAGAGCAAUAUUACGACAC,-3.9 ± 0.39,-2.63 ± 0.48
CGGUAGCAAUAUUACGUAGG,-0.647 ± 0.051,0.647 ± 0.08
CGCCAGCAAUAUUACGGCGC,-3 ± 0.17,-2.23 ± 0.22
GCCAAGCAAUAUUACGAAUG,-3.56 ± 0.2,-1.84 ± 0.16
GGUCAGCAAUAUUACGUUAU,-0.97 ± 0.092,-0.158 ± 0.1
CGAAAGCAAUAUUACGUAGG,-0.721 ± 0.067,-0.28 ± 0.096
CCUGAGCAAUAUUACGAAGG,-3.87 ± 0.3,-2.36 ± 0.32
AGGAAGCAAUAUUACGCCGA,-1.95 ± 0.17,-0.0948 ± 0.12
CACUAGCAAUAUUACGUCAC,-4.12 ± 0.29,-2.01 ± 0.21

Sequence,self-splicing fitness (ln) (30 °C),self-splicing fitness (ln) (37 °C)
GAAGAGCAAUAUUACGUUGG,-3.53 ± 0.18,-2.34 ± 0.16
CCUAAGCAAUAUUACGGUCU,-3.89 ± 0.31,-2.94 ± 0.34
GUUGAGCAAUAUUACGAAAC,-1.97 ± 0.37,–
GAUCAGCAAUAUUACGAUAG,-0.506 ± 0.067,0.475 ± 0.093
UUGCAGCAAUAUUACGCAGA,-2.12 ± 0.11,-1.95 ± 0.096
UGUUAGCAAUAUUACGACGA,-0.147 ± 0.12,0.253 ± 0.15
CCCAAGCAAUAUUACGAUAC,-3.63 ± 0.46,–
AGUCAGCAAUAUUACGGAAA,-2.78 ± 0.19,-2 ± 0.15
GGUAAGCAAUAUUACGUCGA,–,-0.708 ± 0.25
CAGAAGCAAUAUUACGCCGG,-0.314 ± 0.13,-0.619 ± 0.17
CCGGAGCAAUAUUACGACCG,-1.71 ± 0.5,–
UUGUAGCAAUAUUACGUAUA,-2.1 ± 0.17,-0.709 ± 0.15
CAUUAGCAAUAUUACGAGGU,-3.01 ± 0.27,-2.66 ± 0.3
UACCAGCAAUAUUACGAGUU,-1.28 ± 0.073,-0.876 ± 0.076
CGCGAGCAAUAUUACGUCGG,-1.99 ± 0.086,-1.16 ± 0.093
AACGAGCAAUAUUACGCUGG,-3.72 ± 0.31,-0.45 ± 0.16
GUAUAGCAAUAUUACGAUGC,-2.65 ± 0.2,-2.55 ± 0.24
ACUAAGCAAUAUUACGGUUG,-3.25 ± 0.2,-2.5 ± 0.21
ACUUAGCAAUAUUACGCUGC,-3.82 ± 0.32,-2.36 ± 0.22
ACGGAGCAAUAUUACGUAAU,-3.61 ± 0.41,-2.39 ± 0.48
